The text below walks through data of patent publication US5382658A, “Stability-enhanced variants of parathyroid hormone” (Allelix Biopharmaceuticals Inc., priority 1992, dated 1995).

Residue numbers refer to the chain shown, from its start. Where two headings read alike, the source gives them in different places.

The subject of data set [1] is adenylate cyclase activity in UMR-106 rat osteosarcoma cells. Nature of the data set: UMR-106 based adenylate cyclase assay (cAMP formation). The data set is classed as cell-based. The note with it: for EC50: UMR-106 cells, untreated samples, read-out: EC50, concentration effective for half-maximal stimulation of adenylate cyclase activity; for potency relative to hPTH (in words): UMR-106 adenylate cyclase assay. The source says: In the present specification, PTH activity is defined in the context of the osteosarcoma-based adenylate cyclase assay employed conventionally in the art. Briefly, this assay provides an in vitro determination of the extent to which PTH stimulates adenylate cyclase activity in rat osteosarcoma cells of the `UMR` lineage, and thus provides an indication of PTH effects on bone tissue in vivo. Protocols for conducting the assay have been described by Rodan et al, 1983, J. Clin. Invest., 72:1511 (in which the osteosaracoma cells of the ROS lineage are employed) and by Rabbani et al, 1988, Endocrinol., 123:2709 (which employs the line UMR-106). […] The term EC50 refers to the concentration of PTH or variant effective for half-maximal stimulation of adenylate cyclase activity.
Thawed or fresh samples of human PTH(1-84) and of PTH variants obtained as described above were then evaluated for biological activity using a UMR-106 based adenylate cyclase assay and the protocol as described by Rabbini et al, 1988, Endocrinology, 123:2709, which is incorporated herein by reference. As noted, rat osteosarcoma cells of the UMR line are stimulated by PTH to produce adenylate cyclase, an enzyme which catalyzes intracellular conversion of ATP to its cylic monophosphate analogue, cAMP. In this assay therefore, PTH activity is determined by assaying radiometrically the formation of cAMP in PTH-stimulated UMR cells. The results of the assays, expressed in terms of EC50 (concentration of PTH or variant effective for half-maximal stimulation of adenylate cyclase activity), are presented in the table below: […]

Data set [2] in a line: Trypsin sensitivity: trypsin or mock incubation followed by UMR-106 adenylate cyclase assay. The note with it: UMR-based adenylate cyclase assay after trypsin incubation under the exemplified conditions; read-out: EC50 following trypsin incubation. On the procedure:
PTH variants having an "improved stability in the presence of trypsin" are degraded by trypsin at a rate that is slower than a similarly treated native PTH control. An assay suitable for identifying a reduced tryptic digestion rate entails a two step procedure, in which a PTH variant and a native PTH control are separately incubated with trypsin for a defined period, and are then assayed for activity in the osteosarcoma-based assay just described. Protocols suitable for assaying trypsin sensitivity are described in the literature and are outlined in the examples herein.
To measure the sensitivity of a compound (native PTH or variants) to digestion with trypsin, duplicate incubations were established for each compound in either the presence of trypsin ("Trypsin Incubation") or the absence of trypsin ("Mock Incubation"). For example, a lyophilized aliquot of PTH (or variant) was solubilized for 20 minutes at room temperature in 10 mM acetic acid at a final concentration of 1 mg/mL (50 μg PTH or variant plus 50 μL 10 mM acetic acid). […] The appearance of the cleavage product was monitored as a function of time at 253 nm. […]
Parallel trypsin and mock incubations were established as follows. […] Dose-response curves were generated and the relevant EC50 values were calculated. […]

Data set [3] has as its system ovariectomized rat. Nature of the data set: Ovariectomized rat model of osteoporosis, total skeletal calcium scan. The note with it: subcutaneous, once daily for 28 days, human PTH 150 μg/kg, variant dosed at 25 and 150 μg/kg, dose of the reported result not stated. Format: in vivo. The protocol:
The P2 variant was also evaluated in vivo for its effect on skeletal tissue, in an ovariectomized rat model of osteoporosis. Formulations of the P2 variants were first prepared by reconstituting the P2 variant from lyophilized powder in 0.1M acetic acid, then diluting to 10 mM acetic acid by addition of normal saline vehicle and 2% (v/v) heat-inactivated rat serum, to generate a stock solution containing the variant at a concentration of about 150 μg/ml. The P2 formulation was then injected subcutaneously at the neck region, in selected volumes representing dosage sizes of 25 μg/kg and 150 μg/kg (8 rats/each dose). A third group of rats received human PTH at a dose of 150 μg/kg and a fourth group received vehicle alone. Treatment regimen consisted of single dose administration once daily for 28 days.
After treatment, the rats were sacrificed and evaluated by total skeletal calcium scan. Relative to rats receiving vehicle alone, the whole body calcium scanning results indicated an improvement in rats receiving human PTH (5.8% increase), and a still further improvement (9.6% increase) in rats receiving the [His^25 His^26 Leu^27 ] variant. It is believed that enhanced effects of this variant result from its greater half-life in vivo i.e. its resistant to serum-borne trypsin and/or other enzymes which otherwise degrade and/or inactivate the native hormone.

For data set [4], the system named is trypsin.
Description: (§1) The stability of PTH and variants to degradation by trypsin was also quantified by SDS polyacrylamide gel electrophoresis (SDS-PAGE). Incubations of PTH or variant with trypsin were established. For example, a sufficient aliquot of lyophilized PTH or variant was first solubilized for 20 minutes at room temperature with 10 mM acetic acid (final concentration of 1 mg/mL) and then diluted about 20-fold with Tris buffer. About 10 μg of PTH (or variant) was removed for a preincubation, "time zero" time point, and was lyophilized. The incubations were initiated by addition of an appropriate amount of freshly prepared trypsin solution in Tris buffer for a final trypsin to PTH (or variant) ratio of 1:500 (w/w). The samples were incubated at room temperature. Aliquots of the appropriate volume corresponding to an initial amount of undigested PTH (or variant) of 10 μg were removed at specific times (2, 5, 20, 60, 240 minutes). These were quenched immediately by adding an equal weight of SBTI to trypsin (either 2 μL of SBTI in Tris at a concentration of 10 μg/mL or 0.02 μg SBTI was added to the time point containing 0.02 μg trypsin and 10 μg initial equivalent amount of PTH or variant in Tris buffer). Samples quenched at the various time points were then lyophilized.
(§2) Lyophilized samples containing 10 μg of intact and/or fragmented PTH or variant were solubilized in gel sample buffer and subjected to electrophoresis using suitable conditions to separate intact PTH from the smaller fragments (16.5% acrylamide gel, BioRad Mini-Protean II apparatus, 90 minutes, 100 mV). The gels were fixed and stained for protein with Coomassie Blue. The amount of intact, full length PTH present in each of the various samples (preincubation sample and time point samples) was quantified using a gel scanning method, which measures the quantity of stain and therefore the amount of protein scanned in each band. Initially, a standard curve was constructed by loading various amounts of PTH in each lane (2,2, 4, 6, 8, 10 μg per lane), scanning each lane, and then constructing a standard curve of the quantity of stain at the mobility of PTH as a function of the amount of PTH loaded per lane. With the gel scanning system, the quantity of stain was proportional to the amount of PTH loaded in the range of 1 to 10 μg per lane. Using this standard curve, the amount of intact PTH present in each sample was calculated from the quantity of stain at the mobility of intact PTH.
(§3) The amount of PTH (or variant) in the preincubation sample was termed Po (scanned amount corresponding to approximately 10 μg intact PTH or variant) and the amount at a given time, t, was defined as Pt.
For data set [5], the system named is trypsin. Nature of the data set: Trypsin degradation time course quantified by SDS-PAGE gel scanning.
Description: as §1, §2, §3

Take “human PTH(1-84) [hPTH, reference compound]”: the EC50 in data set [1] is 1 nM; in data set [2] it was ~12 nM. In addition, in data set [3], the “increase in whole body calcium relative to rats receiving vehicle alone” value is 5.8%. The “Half-Life (from SDS-PAGE analysis)” value in data set [4] was 25 ± 5 min.

B1: [His^25 ]hPTH (protein, UniProt P01270 32-115, looked up, variant R25H)
Parathyroid hormone: SVSEIQLMHNLGKHLNSMERVEWLHKKLQDVHNFVALGAPLAPRDAGSQRPRKKEDNVLVESHEKSLGEADKADVNVLTKAKSQ
Take B1: in data set [1], the “potency relative to hPTH (in words)” value is given as “substantially equipotent” and the EC50 came to 2 nM. Besides, in data set [4], the “Half-Life (from SDS-PAGE analysis)” value was determined as 27 ± 7 min.

B2: [His^25 His^26 Leu^27 ]hPTH (protein, UniProt P01270 32-115, looked up, variant R25H K26H K27L)
Parathyroid hormone: B1 Parathyroid hormone with K26H, K27L
B2: in data set [1], the “potency relative to hPTH (in words)” value is reported as “substantially equipotent” and the EC50 was 1.7 nM. Moreover, in data set [3], the “increase in whole body calcium relative to rats receiving vehicle alone” value stood at 9.6%. In addition, the “Half-Life (from SDS-PAGE analysis)” value in data set [5] (Trypsin:PTH = 1:500 (w/w), room temperature, time when Pt/Po = 0.5) is > 240 min. Moreover, the “initial material remaining (intact)” value in data set [5] (after 240 minutes, trypsin:PTH 1:500 (w/w)) is “more than 60%”. In addition, the “resistance to proteolysis by trypsin (in words)” value in data set [5] (trypsin to PTH ratio of 1:500 (w/w)) is on record as “almost completely resistant to proteolysis”.
